Measured values from patent US12612465B2, “Formulations comprising PCSK9 specific monoclonal antibodies” (Amgen Inc., priority 2012, dated 2026).
Substitutions are numbered along the chain they refer to. One block for each molecule: values may come before it.

Experiments:
human D374Y PCSK9 = human D374Y PCSK9 (Homo sapiens, UniProt Q8NBP7, D374Y/E620G/G670E/V474I); assay: Receptor ligand blocking screen / functional screening of hybridoma antibodies; format: binding
Description: To screen for the antibodies that block PCSK9 binding to LDLR an assay was developed using the D374Y PCSK9 mutant. […] The following protocol was employed in the receptor ligand blocking screen: Costar 3702 medium binding 384 well plates (Corning Life Sciences) were employed in the screen. The plates were coated with goat anti-LDLR (R&D Cat # AF2148) at 2 μg/ml in 1×PBS/0.05% Azide at a volume of 40 μl/well. The plates were incubated at 4° C. overnight. The plates were then washed using a Titertek plate washer (Titertek, Huntsville, Ala.). A 3-cycle wash was performed. The plates were blocked with 90 μl of 1×PBS/1% milk and incubated approximately 30 minutes at room temperature. The plates were then washed using the Titertek plate washer. A 3-cycle wash was performed. The capture sample was LDLR (R&D, Cat #2148LD/CF), and was added at 0.4 μg/ml in 1×PBS/1% milk/10 mM Ca^2+ at a volume of 40 μl/well. The plates were then incubated for 1 hour and 10 minutes at room temperature. Contemporaneously, 20 ng/ml of biotinylated human D374Y PCSK9 was incubated with 15 micro liters of hybridoma exhaust supernatant in Nunc polypropylene plates and the exhaust supernatant concentration was diluted 1:5. The plates were then pre-incubated for about 1 hour and 30 minutes at room temperature. Next, the plates were washed using the Titertek plate washer operated using a 3-cycle wash. 50 μl/well of the pre-incubated mixture was transferred onto the LDLR coated ELISA plates and incubated for 1 hour at room temperature. To detect LDLR-bound b-PCSK9, 40 μl/well streptavidin HRP at 500 ng/ml in assay diluent was added to the plates. The plates were incubated for 1 hour at room temperature. The plates were again washed using a Titertek plate washer. A 3-cycle wash was performed. Finally, 40 μl/well of One-step TMB (Neogen, Lexington, Ky.) was added to the plate and was quenched with 40 μl/well of 1N hydrochloric acid after 30 minutes at room temperature. OD's were read immediately at 450 nm using a Titertek plate reader.
The receptor ligand assay was then repeated using the mutant enzyme on the 384 member subset of neutralizers identified in the first large scale receptor ligand inhibition assay. The same protocol was employed in the screen of the 384 member blocker subset assay as was done in the large scale receptor ligand blocking screen.
Limiting dilution was used to isolate a manageable number of clones from each line. […] The isolated clones were each expanded in 50-100 ml of hybridoma media and allowed to grow to exhaustion, (i.e., less than about 10% cell viability). The concentration and potency of the antibodies to PCSK9 in the supernatants of those cultures were determined by ELISA and by in vitro functional testing, as described herein.

PCSK9 protein = target: T1, PCSK9 protein (Mus musculus, UniProt Q80W65); assay: Serum cholesterol and HDL in WT mice, 13 day study; format: in vivo; conditions: 10 mg/kg, repeated 13 day study
T1 construct: endogenous in cells; host or cells: WT C57BL/6 mice, in vivo
T1 sequence (Q80W65 156-694): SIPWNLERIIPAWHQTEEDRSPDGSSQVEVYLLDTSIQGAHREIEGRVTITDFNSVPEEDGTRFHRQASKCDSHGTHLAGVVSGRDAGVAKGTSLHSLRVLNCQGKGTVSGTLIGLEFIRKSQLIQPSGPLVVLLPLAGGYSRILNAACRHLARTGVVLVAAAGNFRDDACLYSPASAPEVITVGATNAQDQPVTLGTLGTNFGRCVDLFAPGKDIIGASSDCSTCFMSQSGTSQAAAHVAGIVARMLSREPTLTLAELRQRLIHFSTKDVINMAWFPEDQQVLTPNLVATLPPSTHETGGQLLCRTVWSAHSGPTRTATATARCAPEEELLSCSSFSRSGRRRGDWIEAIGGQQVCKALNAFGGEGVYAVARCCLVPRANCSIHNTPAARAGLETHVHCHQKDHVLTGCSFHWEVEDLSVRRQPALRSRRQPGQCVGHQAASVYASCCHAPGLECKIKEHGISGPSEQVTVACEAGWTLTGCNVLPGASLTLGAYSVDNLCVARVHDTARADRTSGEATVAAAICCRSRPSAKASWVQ
Excerpt: Male WT mice (C57BL/6 strain, aged 9-10 weeks, 17-27 g) obtained from Jackson Laboratory (Bar Harbor, Me.) were fed a normal chow (Harland-Teklad, Diet 2918) through out the duration of the experiment. […] Naïve mice were also set aside as naïve control group.
Animals were sacrificed and livers were extracted and prepared as in Example 13.

human PCSK9 [1] = target: T2, human PCSK9 (Homo sapiens, UniProt Q8NBP7, E620G/G670E/V474I); assay: KinExA affinity analysis; format: binding; conditions: hPCSK9, KinExA
T2 construct: made in house
T2 sequence (Q8NBP7 153-692 V474I/E620G/G670E): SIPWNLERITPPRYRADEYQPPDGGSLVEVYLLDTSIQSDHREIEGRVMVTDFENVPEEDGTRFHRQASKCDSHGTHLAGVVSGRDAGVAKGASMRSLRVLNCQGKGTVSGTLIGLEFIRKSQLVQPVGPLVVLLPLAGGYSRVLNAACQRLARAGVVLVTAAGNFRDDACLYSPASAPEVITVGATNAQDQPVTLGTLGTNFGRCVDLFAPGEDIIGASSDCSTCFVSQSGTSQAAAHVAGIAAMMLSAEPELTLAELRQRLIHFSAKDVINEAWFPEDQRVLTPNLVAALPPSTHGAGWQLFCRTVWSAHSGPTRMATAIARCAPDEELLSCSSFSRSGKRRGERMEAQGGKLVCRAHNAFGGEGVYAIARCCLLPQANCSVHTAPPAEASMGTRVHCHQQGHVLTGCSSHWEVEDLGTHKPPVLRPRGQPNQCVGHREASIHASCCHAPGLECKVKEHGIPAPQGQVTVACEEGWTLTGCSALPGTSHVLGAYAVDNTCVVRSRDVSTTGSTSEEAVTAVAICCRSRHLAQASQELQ
Excerpt: Briefly, Reacti-Gel™ (6×) (Pierce) was pre-coated with one of human, V5-tagged cyno or His-tagged mouse PCSK9 proteins and blocked with BSA. […] Equilibrium dissociation constant (KD) were obtained from nonlinear regression of the two sets of competition curves using a one-site homogeneous binding model. The KinExA® Pro software was employed in the analysis.

human PCSK9 [2] = target: T2, human PCSK9; assay: BIAcore affinity analysis; format: binding
Description: Briefly, the surface plasmon resonance experiments were performed using Biacore 2000 optical biosensors (Biacore, GE Healthcare, Piscataway, N.J.). […] The concentration of PCSK9 protein was varied at 2 fold intervals (the analyte) and was injected over the immobilized antibody surface (at a flow rate of 100 μl/min for 1.5 minutes). […]
The binding signal obtained was proportional to the free PCSK9 in solution.
Antibody binding kinetic parameters including ka (association rate constant), […] (dissociation rate constant), and KD (dissociation equilibrium constant) were determined using the BIA evaluation 3.1 computer program (BIAcore, Inc. Piscataway, N.J.).

Sequence of human D374Y PCSK9 (Q8NBP7 153-692 D374Y/V474I/E620G/G670E): as the sequence (Q8NBP7 153-692 V474I/E620G/G670E) above, with D222Y counted along it

- neutralizing ability (human D374Y PCSK9): weak neutralizers
B1: 3B6: anti-PCSK9 ABP, light/heavy variable region SEQ ID NO 46/60 (antibody, listed as Homo sapiens, V domains shown)
VH: QVQLVQSGAEVKKPGASVKVSCKASGYTFTSYGISWVRQAPGQGLEWMGWISTYNGNTNYAQKVQGRVTMTTDTSTSTAYMELRSLRSDDTAVYYCARGYTRDYWGQGTLVTVSS
VL: QPVLTQPLFASASLGASVTLTCTLSSGYSSYEVDWYQQRPGKGPRFVMRVDTGGIVGSKGEGIPDRFSVLGSGLNRYLTIKNIQEEDESDYHCGADHGSGTNFVVVFGGGTKLTVL

- blocking of PCSK9/LDLR in the functional assays (human D374Y PCSK9; hybridoma clones): neutralizing
B2: 25A7: anti-PCSK9 ABP, light/heavy variable region SEQ ID NO 15/58; neutralizing clone 25A7.3 (antibody, listed as Homo sapiens, V domains shown)
VH: B1 VH with T30P, T53A, Q62E, V64L, L83V, Y94F, T101V, R102M, Y104V, L110T
VL: QSALTQPASVSGSPGQSITISCTGTSSDVGRYNSVSWYQHHPGKAPKVMIYEVSNRPSGVSTRFSGSKSGNTASLTISGLQAEDEADYYCSSYTSSSVVFGGGTKLTVL

- neutralizing ability (human D374Y PCSK9): non-neutralizing
B3: 13H1: anti-PCSK9 ABP, light/heavy variable region SEQ ID NO 28/91 (antibody, listed as Homo sapiens, V domains shown)
VH: QVQLQQSGPGLVKPSQTLSLTCAISGDSVSSNSAAWNWIRQSPSRGLEWLGRTYYRSKWYKNYSVSVKSRITINPDTSKNQFSLQLNSVTPGDTAVYYCARGGPTAAFDYWGQGTLVTVSS
VL: LSALTQPASVSGSPGQSITISCTGTSSDVGNYNLVSWYQQYSGKAPKLMIYEVSKRPSGVSNRFSGSKSGNTASLTISGLQAEDEADYYCCSYAGSSTLVFGGGTKLTVL

- neutralizing ability (human D374Y PCSK9): non-neutralizing
B4: 27B2: anti-PCSK9 ABP, light/heavy variable region SEQ ID NO 13/87 (antibody, listed as Homo sapiens, V domains shown)
VH: QVQLQESGPGLVKPSQTLSLTCTVSGGSISSGGYYWSWIRQHPGKGLEWIGYIYNSGSTYYNPSLKSRVTISVDTSKNQFSLKLSSVTAADTAVYYCAREDTAMVPYFDYWGQGTLVTVSS
VL: QSVLTQPPSVSGAPGQRVTISCTGSSSNIGAHYDVHWYQQVPGTAPKLLIYGNTYRPSGVPDRFSGSKSGTSASLAITGLQAEDEADYYCQSYDNSLSGVVFGGGTKLTVL

- neutralizing ability (human D374Y PCSK9): non-neutralizing
B5: 13B5: anti-PCSK9 ABP, light/heavy variable region SEQ ID NO 42/69 (antibody, listed as Homo sapiens, V domains shown)
VH: EVQLLESGGGLVQPGGSLRLSCAASGFTFSSYAMSWVRQAPGKGLEWVSTISGSGGRTYYADSVKGRFTISRDNSKNTLYLQMNSLRAEDTAVYYCAKEVGSPFDYWGQGTLVTVSS
VL: QSVLTQPPSVSAAPGQKVTISCSGSNSNIGNNYVSWYQQLPGTAPKLLIYDNNKRPSGIPDRFSGSNSGTSATLGITGLQTGDEADYYCGTWDSSLSAVVFGGGTKLTVL

- Kd (human PCSK9 [1]): 0.015 nM
- Kd (human PCSK9 [2]; hPCSK9, pH 7.4 (Table 7.1)): 0.47 nM
- Koff (human PCSK9 [2]; pH 6): 7.007e-05 s⁻¹
- Kon (human PCSK9 [2]; pH 6): 2.392e+06 M⁻¹ s⁻¹
- Kd (human PCSK9 [2]; pH 6 (pH 6.0 HBS-P buffer, n=1)): 0.029 nM
- Koff (human PCSK9 [2]; pH 7.4): 4.983e-05 s⁻¹
- Kon (human PCSK9 [2]; pH 7.4): 106400 M⁻¹ s⁻¹
- Kd (human PCSK9 [2]; pH 7.4 (Table 7.2)): 0.47 nM
B6: 16F12: anti-PCSK9 ABP, light/heavy variable region SEQ ID NO 35/79 (antibody, listed as Homo sapiens, V domains shown)
VH: QVHLVESGGGVVQPGRSLRLSCAASGFTFNSFGMHWVRQAPGKGLEWVALIWSDGSDEYYADSVKGRFTISRDNSKNTLYLQMNSLRAEDTAVYYCARAIAALYYYYGMDVWGQGTTVTVSS
VL: B5 VL with N26S, Y33F, N52Y, N67K, V99Y, G103T, K106R, L107V
- total serum cholesterol after a single dose (PCSK9 protein): significant and substantial decreases in total serum cholesterol
